Biological target: Human sapovirus (HuSaV) GI.6 capsid protein VP1, Nichinan strain, self-assembled as a virus-like particle (VLP) (human sapovirus GI.6, Nichinan strain)
Experiment: cryo-EM structure; single-particle cryo-EM of purified VLPs in Express Five SFM, icosahedral symmetry imposed, 2.9 Å; de novo atomic model

“Human sapovirus (HuSaV) GI.6 capsid protein VP1, Nichinan strain, self-assembled as a virus-like particle (VLP) (natural protein)” was tested, and the stoichiometry N was 180 copies.

Reference: publication PMC9093105
